Test results as given in US6051224, “Compositions and methods for targeting cells and modulating pulmonary surfactant secretion” (Thomas Jefferson University, dated 2000).

Biological target: purified recombinant human surfactant protein A (human, UniProt Q8IWL2, 125I radioiodination using chloramine T)
Assay: ligand blot of lysogen proteins (SDS-PAGE, PVDF, 125I-SP-A)

B1: recombinant porcine SP-A recognition protein (SPAR) encoded by the 1.8-kb porcine lung cDNA, expressed from lambda gt11 in E. coli Y1089 (receptor)
chain: MDMCYGMMGSLFRSGSRQTLFASQVMRYADLYAASFINLLYYPFSYLFRAAHVLMPHESTVEHTHVDINEMESPLATRNRTSVDFKDTDYKRHQLTRSISEIKPPNLFPLAPQEITHCHDEDDDEEEEEEEEECGGKPKLSALIKQVLAGLTGAKAVSLWVLVGGGGLHQRYILESFLKTLKYSNHREILVLVFCICTLCSWFRIVRESVSEERKGQAGLNCMQLAPLWFVTLFHHQYIIVYPETRRVVEGPRVKQRQWEEVIQKCYGTNWALTTKTHLFQCIT
binding result: binds
